Laboratory results from a protein production outcome set (Wang et al. 2014).

test: label from the status in PepcDB records

| Sequence | protein production |
| --- | --- |
| WLDLAPSTQVDTETSINVLSDIEFTLNGIYSTMQSSDAYSGRLVYYGDVTGDDMQAVSSTKRTGNYYRFNFTKDNGPSSHWSYLYSIIQNCNLILMNVDKLSIDEDETEYKNDLKGQALAIRGMALFDLTRIFGYPYLKDNGASLGVPIVKELSTIDSKPARNTVAECYTEIISDLKNSTELLSGDFNKGKVNRWAAMTLLSRVYLYKGEYNEALTMAENAIKGAEKEGYALWTNEEYPTAWGNDASASNPGEILFEIVNLTTDSPGKESMGYLNSYNGYDDMCITCSFYQLLKKDPKDVRLKILSFDKKYYAYVNKYQPQQGENITDANIPLIRLSEAYLNAAEAAVQTGDNAKAVKYLNSIVQRANPENSVEGKTLTLENVLDERRKELVAEGHRMYDVIRNGMTVKRIDVKDSDINKTKHNTAYMEYDWNFHKILLPIPKKEMDANPNMKQNPGYVD | not failed |
| WQPATERLQVTYLGKVSTTGMQFLSGCTEKPVIELWKKHTLAREDVFPANALLEIRPFQVWLHHLDHKGEATVHMDTFQVARIAYCTADHNVSPNIFAWVYREINDDLSYQMDCHAVECESKLEAKKLAHAMMEAFRKTFHSMKSDGRIH | failed |
| WRRLVEEAARRDPDDVRLLVHVASDVWNFVDEHCTLVADAYRHVERQLAWRRENRLRLMTTALLDGTTRIADLPDVATALDLPEQGRYAVVSVAVAHPAGHVGTQLLSVPPGMRALWHTGTDVEHGIVHLGEREPKDLVDRVTVPIGARVGISRAVDGLAAVGDARRLAETALRACPESGGTVLLDEHLPAALLVSAPALGTALVNRVLGPLLSLDPSDRDLLLDTVSAWLDNDGSAQRAASRLYCHRNTVLNRLRRFEQLTGRCLTRPADVVDTSLALTARRL | failed |
| WRTIFNAEPECVMIVATDGTLLDINPAGVAAIEADSVGAVIGKRVYSLVVPECQQAFRQLNESVCQGKQGTLEFEIITCRGNRRWMATHAVPVRNEKDGNLVQLSI | failed |
| WSLQPLADMSAAEFRDWQVLLENRTGVVLNEQRRTFLQASLTARMRELGIGDYHSYYRQVTDGPRGAVEWATLLDRLTVQETRFFRHPPSFELLERYLGERLRREGMPRPWALWSVGCSSGEEPYSLAMCAAQVLRGQEREDFFGVTGTDISLHALQRARQANYPARKLEQLEAGLVERYCERQADGSFSVKTILTERVCCARLNVLDLAKAPWSGMDVIFCQNLLIYFRRWRRREILNRLAERLAPGGLLVIGVGEVVDWSHPELEPVADERVL | failed |
| WSYEHLHLTNRIKLLYAPTFRDNELGMAKLHLDIAEMKQALGNEYQLILKLHPSISNDLEKLDDDFVIYVDKETPIETLLPVVDILITDYSSIPFEFALLQKPMIFFTYDLTEYNNARGLSDGFLETIPGPHVFTTTELIEVIQNNTFDLEKVRLFAEKWNKYSDGFSSERFVSFLKEQLEK | failed |
| YANEEKGLEIAQERKARDEGWGDSIATMEMILKNAQGESSTRLMRLKSLEVEGDGDKGLTIFDQPRDVTGTAFLNHSHTIGADDQWLYLPALKRVKRISSRNKSGPFMGSEFAYEDLSSFEIEKYRFNHLKDEKFNGQDVFVLEQIPTDKNSGYTKQVVWLDKAHYRPLKVEFYDRKGALLKTLTFANYKQYLDKYWRAHTMAMTNHQTGKSTELNTSDLRFQTGLEENDFNKNVLKRVK | failed |
| YETIIIHRHQRPDPDAIGSQVGLAELLRASFPEKNIYQVGGPVEGLEFLAEMDVITDDVYRGALVIVTDTANAPRISDARFSLGDQLIKIDHHPNDEPYGDLVWVNTNASSCSEIIVDFWQQHLAELTMTDNAARLLYAGIVGDTGRFLYPSTSAHTLAVAAQLRTFNFNAADLNRELDQMP | not failed |
| YHDETAQDEEDRVLIHFNVRDIKIGPECHDVQPPEGRSRDGLLTVNLREGGRLHLCAETKDDALAWKTALLEANSTPVRVYSPYQDYYEVVPPNAHEATYVRSYYGPPYAGPGVTHVIVREDPCYSAGAPLAMGMLAGAATGAALGSLMWSPCWF | failed |
| YKGKNLIMIQVEALQQFVINSKVENQEITPNLNRWINKSLYFNNFFYQVSSGNTSDAEFLANNSFYPAASGAAYYLYAGNTYSSLAKEMNDNNYYTAVLHGYKEGFWNRNVMYKAEKFKDFFGEKSFNINENVGLGLSDKSFLNQSFNKLKSFSSPYYSFIITLSSHYPYDDTKGYGDFNVGDYEGTLLGNYLKGIHYTDAQLGTFLDKLEKSGIMDNSVVILYGDHYAIPKDKINDLYDFENIKNPTDLDWYELQKVPMLIHFPKDQYKGINSEYSGQIDLYPTIANMFNLPQNYMLGTDLFASKNRNVIFRNGSFTDGNVFYVSWTNTYYDIKTGS | failed |
| YRYDEQLNLCLERLSSGKDKNKSVLQNKYVRCSVRAEVRHLRRVLCHRLMLNPQHVQLLFDNEVLPDHMTMKQIWLSRWFGKPSPLLLQYS | failed |
| YSGSQAPGGIQEIVAMSPELDTYSITKRVKEVLTDNNLGQRLFGESILGLTQGSVSDLLSRPKPWHKLSLKGREPFVRMQLWLNDPHNVEKLRDMKKL | not failed |
| YTEPQIDDTNDGIVFSELTHPLIADAVANDFSLSQNILLTGSNASGKSTFMKSIAINIILASAIQTVTASKFVYQPGIVFTSMANADDVLSGDSYFMAELKSIKRIVEIPDNQKIYCFIDEIFKGTNTTERIAASESVLSFLHEKSNFRVIAATHDIELAELLKQRYENYHFNEVIENNNIHFDYKIKPGKANTRNAIELLKITSFPAKIYERAKDNVSN | failed |
